Results on two molecules are retold here after patent US20230125690A1 (KYUNGPOOK NATIONAL UNIVERSITY INDUSTRY ACADEMIC COOPERATION …, published 2023).

*1 amine or outer side, *2 acyl side, *3 side chain or, on linkers, in order; H or OH if unused. Where no end group is shown, it is not given here. [ ]: non-standard residue; d: D form. Sac = acetylated serine, O-acetyl-L-serine, CC(=O)OC[C@H](N[*:1])C(=O)[*:2]

The target of assay [1] is T1, human COX2 (cyclooxygenase 2) protein with acetylated S565 residue (human, UniProt P35354 18-604, acetylated serine at S565).
T1 construct: Endogenous protein in RIPA lysates of human microglia and human PBMCs, and in human brain tissue sections; also called S565 acetylated COX2 protein; acetylated COX2 protein
T1 sequence: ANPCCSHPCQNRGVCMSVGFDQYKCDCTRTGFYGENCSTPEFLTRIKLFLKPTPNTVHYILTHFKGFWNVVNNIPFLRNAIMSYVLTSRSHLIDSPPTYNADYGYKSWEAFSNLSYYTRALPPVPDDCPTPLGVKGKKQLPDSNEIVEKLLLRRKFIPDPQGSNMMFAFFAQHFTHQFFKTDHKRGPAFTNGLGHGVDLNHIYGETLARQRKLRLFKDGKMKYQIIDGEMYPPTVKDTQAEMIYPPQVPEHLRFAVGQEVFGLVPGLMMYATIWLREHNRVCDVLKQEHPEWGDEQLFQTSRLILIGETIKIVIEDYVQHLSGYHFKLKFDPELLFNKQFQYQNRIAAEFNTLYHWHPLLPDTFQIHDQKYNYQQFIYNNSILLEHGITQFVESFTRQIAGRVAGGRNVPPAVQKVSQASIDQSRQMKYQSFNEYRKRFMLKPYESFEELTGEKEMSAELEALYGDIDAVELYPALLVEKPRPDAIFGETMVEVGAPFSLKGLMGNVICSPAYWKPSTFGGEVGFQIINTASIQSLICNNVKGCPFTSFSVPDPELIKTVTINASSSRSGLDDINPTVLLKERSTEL
The experiment in a line: sandwich ELISA on human microglia lysates, plate coated with 9F7-2. For orientation: In an ELISA, binding on a coated surface is turned into a signal by an enzyme label.

The target of assay [2] is T2, acetylated peptide PFTSacFSVPDPELI (SEQ ID NO: 3) including acetylated S565 residue of COX2 (human).
T2 peptide: PFT[Sac]FSVPDPELI
The experiment in a line: ELISA, 96-well plate coated with 9F7-2, peptide captured, biotinylated COX2 antibody detection.

Assay [3] addresses T1, human COX2 (cyclooxygenase 2) protein …. In words: sandwich ELISA on human PBMC lysates, plate coated with 44C7C8. How it is done:
The sample preparation was performed according to the following procedure. After collecting mouse and human blood, the blood was transferred to a heparin tube and reacted for 30 minutes. The reacted blood was placed on the same amount of Histopaque (sigma, 10771) and centrifuged (400 g, 30 minutes). After centrifugation, a middle PBMC layer was separated and washed. After washing, the PBMCs were lysed by adding an RIPA solution (Cell signaling, 9806S), and then the cell lysate was centrifuged (13,000×g, 10 minutes) to obtain a supernatant, and then the amount of protein was quantified and ELISA assay was performed using 100 μg/ml of protein.
After the plate was washed with PBS/Tween, 300 μl/well of a blocking solution was applied at RT for 1 hour. 50 μl of a PBMC sample (100 μg/ml) was treated and incubated at RT for 2 hours. […] After the final washing, the detection was performed with TMB (3-3′,5,5′-tetramethylbenzidine) ([…] substrate for HRP) and the plate was read at 405 nm using an ELISA plate reader. A standard curve was obtained by step-diluting the peptide (500 μg/ml) of SEQ ID NO: 3 or SEQ ID NO: 4, and the amount of COX2 protein acetylated in S565 residue was calculated by substituting an optical density (O.D.) value obtained from the sample to the Standard curve.

In assay [4] the target is T3, acetylated peptide GCPFTSacFSVPD (SEQ ID NO: 4) including acetylated S565 residue of COX2 (human).
T3 peptide: GCPFT[Sac]FSVPD
In words: ELISA, plate coated with antibody, peptide captured, biotinylated COX2 antibody detection.

B1: monoclonal antibody 9F7-2 (antibody, V domains shown)
VH: QVQLQQSGAELVRPGTSVKISCKASGYTFTDYLLGWVKQRPGHGLEWIGDIYPGGTYIKYNEKFKGKATLTADTSSSTAYMQLSSLTSEDSAVYFCARGRNDEKGDYWGQGTSVTVSS
VL: DVLMTQTPLSLPVSLGDQASISCRSSQSIVHRNGFTYLEWYLQKPGQSPKLLIYQVSNRFSGVPDRFSGSGSGTDFTLKISRVEAEDLGVYYCFQGSHVPPTFGGGTKLEIK
notes: Clones were screened for IgG expression; the isotype and constant regions are not
Take B1: the binding result in assay [1] and in assay [2] was “binds” in each case.

B2: monoclonal antibody 44C7C8 (antibody, V domains shown)
VH: DVQLQESGPGLVKPSQSLSLTCSVTGYSITSGYYWNWIRQFPGNKLEWMGYISYDGSNNYNPSLKNRISITRDTYKKQFFLKLNSVTTEDTATYYCARGADYYGNTYFYFDVWGAGTTVTVSS
VL: DIVMSQSPSSLAVSVEEKVNMSCKSSQSLLYSRNQKNYLAWYQQKPGQSPKLLIYWASTRESGVPDRFTGSGAGTDFTLTISSVKAEDLAVYYCQQYYTYPFTFGSGTKLEIK
notes: the isotype and constant regions are not; The methods call it 44C7F5 or 44C75F and the results call it 44C7C8; also called 44C7F5; 44C75F
For the molecule B2, the binding result in assay [3] and in assay [4] was “binds” each time.
